Source: the DeepSol protein solubility set

Test: soluble on expression in E. coli; label from the status in PepcDB or PDB records

| Sequence | soluble on expression in E. coli |
| --- | --- |
| TANKRHYLEKVSHQGIISALAFDQRGALKQMMAAHQEGEATVTQIETLKVLVSEELTPYASSILLDPEYGLLATKVRANQTGLLLAYEKTGYDATTTSRLPDCLVEWSVKRLKAAGADAIKFLLYYDVDGDEQINLQKQAYIERIGSECTAEDIPFFLELLSYDERISDNNSAAYAKLKPHKVNGAMSVFSDKRFGVDVLKVEVPVNMAYVEGFTEGEVHYSQAEAIKAFQDQEAASHLPYIYLSAGVSAKLFQETLYFAAAAGAQFSGVLCGRATWAGSVPVYITKGEDEARKWLCTEGFQNIDELNRVLEETASPWTEKI | not soluble |
| MEIRTFLERALKEDLGHGDLFERVLEKDFKATAFVRAKQEGVFSGEKYALELLEMTGIECVQTIKDKERFKPKDALMEIRGDFSMLLKVERTLLNLLQHSSGIATLTSRFVEALNSHKVRLLDTRKTRPLLRIFEKYSVLNGGASNHRLGLDDALMLKDTHLRHVKDLKSFLTHARKNLPFTAKIEIECESFEEAKNAMNAGADIVMCDNLSVLETKEIAAYRDAHYPFVLLEASGNISLESINAYAKSGVDAISVGALIHQATFIDMHMKMA | soluble |
| MGSDKIHHHHHHMGPLSGITILDLTSVLMGPYATQTLADMGADVVKVESPEGDIVRHIGPGRTPGMGGMFLNTNRGKRSIVIDLKQNDGREALLRLAARANALIYNVRPQAMARLGLSYEQVAAVNPGIVYLGAFGYGQDGPYAAKPAYDDLIQGAAGVPTLLAAAGDGTPRYVPITIADRIVGLMAVNAMLGALMHQQRTGEGQRIDVPMFESMASFVLVDHLGGLTYEPPLDHGGYARLLSRSRKPYRTSDGYLCVLIYNDKQWRSFFEAIDRTDFLAQPRFANHAARTRHIDEIYEEIGAIFLTRTTAEWRELLERADIPVMPMHSMESILDDPHLRAVGFFETVEHPVEGRVRQMKVPSTWSATQPQPGGPAPTLGGNGRDILTEAGFSSAEIERLGHSKAVHLPD | not soluble |
| MAHHHHHHMESKICDPIGLDKNKFRKVEEENEENSKIVENGQMTYNDDLEMFTTIQLNQEIDIRKNPFPLHMINQKNDIPLCAQEFSKLTDPLYIKKICLEKVHDWSRCNEDDVCVNQILSGLTNQLFEVSIKEDTAIEYRITRRHVLFRIYGKDVDALYNPLSEFEVYKTMSKYRIAPLLLNTFDGGRIEEWLYGDPLSIDDLKNKSILVGIANVLGKFHTLSRKRHLPEHWDKTPCVFKMMDRWRLAVSNYKNLDKVTLDINKYIQESHKFLKFIKIYTQIENIANDIVFCHNDLQENNIMNTNKCLRLIDFEYSGYNFLSADIANFFIETTIDYSYNAYPFFIINKKNYISYESRILFVTTYLSKYLDDSTAASDQDIIDQFLEAIEVQALGLHLIWAFWSIIRGYQTKSYNEFDFFLYAKERLKMYDEQKQYLMSKNIIKDYDD | soluble |
| MGSDKIHHHHHHMHRFKYDHPLDDGVRRRVMEELAALERRHHVRVLYACESGSRAWGFASPDSDYDVRFLYVHRPQWYLQVEPQRDVIELPLDDELDISGWELRKALQLLNRSNPTMFEWLQSPLVYRADEKAAAALRELMADFHSLGRCRWHYLSMARKNHRVHLQGETVRLKKYLYVLRPLLAVRWLDAGKGLPPMRFADLAAATVEDDGLAAEINHLLAIKMAAGEAQLGGRLPKLDAFIASMLAEPVPPLPGRHDGDVRRLDRLLQEWVMGSVREDGSAACEI | not soluble |
| KRFTADVEQQAEKILSQMTLDEKLSYIGGINWMYTRPLERFGIPRLKMSDGPQGLGTHGPSTAYPCALMLAATWNEQLATEYGSALGKDCRARGVHVLLGPAVNIYRAPMCGRNFEYMGEDPYLTSRMATGYIKGVQGQGVMATIKHFIANNSDYDRDHISSDIDERTLNEIYFPSFRAAVQEAEVGAVMSSYNLLNGIYTTEHPWLLKDVLRQQWGFKGILMSDWGSTHHCIPAVKGGLDLEMPAGSKMQPEELKYYLRTGDITIETIDEKVRHILQTLLAFGFRETQQPDTHIPLKNPQCAQTA | not soluble |
| MSLRKRPDSVTPDLLHVDRSAMGPLAERMRPRTLDDMVGQKRLLAPDSALRRAVESGRVHSMILWGPPGCGKTTLALLLAHYADAEFNAISAVLSGLPEVRQVLAEAAQRFAGGRRTVLFVDEVHRFNKAQQDAFLPHIERGTILFVGATTENPSFELNSALLSRCRVHVLEGVSPQDIVEALQRALHDAERGLGQQTIQVSEASLLEIASAADGDVRRALTLLEIAAELATGEGGEITPRTLLQVLADRTRRFDKNGEQFYDQISALHKSVRSSNPDAALYWLTRMLDGGCDPTYLARRLTRMAIEDIGLADPRAQGMALEAWDIYERLGSPEGELAFAQLVLYLASTAKSNAGYAAFNQARAEVRATGTQEVPLHLRNAPTKLMKTLGYGQDYQYDHDAEGGIALDQTGFPDAMGERVYYNPMPRGMEIKLKEKLDRLRETRGQAREGHHHHHH | soluble |
| MRTVDFTPLYRNAIGFDRLLNMMENSAAKNAQGGYPPYNIEQKEDNQYRITMAVAGFGDEEIDITQQENTLIVRGERKPEESKNYIYQGIAERDFERKFQLADYVKVTGATMEHGLLHIDLEREIPEAMQPRKIAINGKHLLENK | not soluble |
| MKYQVLLYYKYTTIEDPEAFAKEHLAFCKSLNLKGRILVATEGINGTLSGTVEETEKYMEAMQADERFKDTFFKIDPAEEMAFRKMFVRPRSELVALNLEEDVDPLETTGKYLEPAEFKEALLDEDTVVIDARNDYEYDLGHFRGAVRPDIRSFRELPQWIRENKEKFMDKKIVTYCTGGIRCEKFSGWLLKEGFEDVAQLHGGIANYGKNPETRGELWDGKMYVFDDRISVEINHVDKKVIGKDWFDGTPCERYINCANPECNRQILTSEENEHKHLGGCSLECSQHPANRYVKKHNLTEAEVAERLALLEAVEV | not soluble |
| GKNTPKSAIIYTTMGDIHISLFYKECKKTVQNFSVHSINGYYNNCIFHRVIKHFMVQTGDPSGDGTGGESIWGNEFEDEFFDHLNHSKPFMVSMANCGPNTNGSQFFITTVPCPWLDFKHTVFGKVTQGSKIVLDIEKVRTDKRDKPLEDIKILNIKINN | soluble |
| MKALIVDDEPLARNELQYLLNLNDAIDEIEEAENIEETLEKLLYNTFDLIFLDINLMDESGIDLAQKINKMKRSPHIIFATAHEKFAVKAFELNATDYILKPFEKERINQAVNKVDMAKDKSKNKDKTITPKYIDYSDDERAQTHVLPIEVDERIHILNFTDIIALSVNNGITTIDTTKQSYETTETLNHYEKKLPSSLFIKIHRATIVNKEHIQTIEHWFNYTYQLTLTHEFKYQVSRSYMKTFKQQLGLQ | not soluble |
| MGSDKIHHHHHHMLKMPSLKAVKSFVAAAKYQSFTRAAEALCVTQAAISRQIRELEAYMGVELFKRVGRAVELTEAGSAFFDAAQLSFVNISQAAKRVGAYKAGKSEVTLCCSAAFAALWLSPKLPGFFNDNQDIDLNLISTQNFLSMEPGVTPDIFITKFSSVHSGYRSYPLFHDVIFPVCTPRYRDEHPELATLEGLRDSALLNLSPYGRAQVAEHIDWGVWLAFHDTDIEKRTHNRPHVFSANDYNVVINMTLANQGVALGWSHLVAESLEKGALVRPIQKEVVHKDSQHYLAFKVDRESDRGCCRLRDWLLSHFA | not soluble |
| MSQQKSDFADDADIDESLDELASEETIEETVENLEANGFEVIVVNSADDALAELQSLIPAEASVMNGHSTTLEEIGFDEYLSDGDHGWESLPEEIWSIDDDAKRQAARRESQTADYFLGGINGISQTGELVAADRSGSRIGAYPFAASNVVIVSGVNKIVPTLEDALDRLETVAYPLENERAKEAYGVDSAIAKQLILRQELEEGRTTVVLIREHLGYLEHHHHHH | soluble |
| GMSIIDLTKLEQKVATMWDSILTNSPFIHEVLDGKATKALYAIYMTETYHYTKHNAKNQALVGIMGKDLPGKYLSFCFHHAHEEAGHELMALSDIASIGFDREDVLSSKPLPATETLIAYLYWISATGNPVQRLGYSYWAENVYGYIDPVLKAIQSTLDLTPQSMKFFIAHSKIDAKHAEEVNEMLHEVCKTQEDVDSVVAVMENSLVLTARILDDVWKEYQLFQSGASDRYAFLRDNA | soluble |
| MGSDKIHHHHHHMVQDRKSTVVITGASSGVGLYAAKALAERGWYVVMACRDVAKAQLAAQSVGIPHQGSYTIMHIDLGSLDSVRQFVKNFRASGHSLDALVCNAAIYMPLIKEPLRSPEGYELTVTTNHLGHFLLCNLMLEDLKKSSSEPRLVILGTVTHNPDELGGKIPPRPDLGDLQGFAEGFKEPISMIDGKKFEPVKAYKDSKVCNVLTMRELHQRYHESTGIVFNSLYPGCVAETPLFRNHYPLFQKIFPLFQKYITKGYVSQELAGERVAAVVADPEYNQSGVYWSWGNRQKEDGKSFVQKVSPQARDDDKGDRLWQLSAKLVGLA | not soluble |
| GPGSMHSMVRVGLTNGMVLTGRIVEFDAVTMNMKLDAITDMAVLHPAAGEGCGDSAYETNPAALRCCNSVVVRGCHLRYMDFIDEESDNGRGLQELITAVRVVKPSVPQD | not soluble |
| MGPVPIKLALVIPNYNHSAAISQALSELAALNLPCYLIDDGSNDETRYLLQSLAEQHDWVTLLQHPYNRGKGAAVMTGLRSAYRDGFTHALQVDADGQHNLSDIPAMLAKAQAKPDALISGKPEYDKSVPKGRLYGRYLTHFWVWVETLSFDIQDSMCGFRVYPLAATERLFSKQALTERMDFDIEILVKLYWQGVEILFHPTKVIYPENGVSHFQCVADNVRISKLHTRLFFGMLKRLPQLLRRKQAAKSTSSAHTATHWSAMKERGSYWGIKLLVESYRFGGHWLCRAIMYPVICYFFLTGKVSREASRDFLRRVQHLEPQHPQLNQPVGWRDSLNHFIAFGNAALDRIDAWCDRIQLSQVDFPDRQVLADQLESGKGAVLLVSHLGNLELCRAISIHQRKVKVNVMVLTSHAENFNNVLKQLNPNSSLNLIQVTELNPATSMLLQQKIEDGELVVIAGDRTSSHAQGRVVYAPFMGQDAAFPQGPFILAGLLDCPVYLMFCLREQGRYRVHLERFAETLKGPRAGRMERLQQAVYRYSERLEHYARREPLQWFNFFDFWRDDNQVNRATSAHKTTAALPEQERTTDRTEHLLEHHHHHH | soluble |
| MFHGKHPGGLSERGRALLLEGGKALGLDLKPHLEAFSRLYALLQEASGKVNLTALRGEEEVVVKHFLDSLTLLRLPLWQGPLRVLDLGTGAGFPGLPLKIVRPELELVLVDATRKKVAFVERAIEVLGLKGARALWGRAEVLAREAGHREAYARAVARAVAPLCVLSELLLPFLEVGGAAVAMKGPRVEEELAPLPPALERLGGRLGEVLALQLPLSGEARHLVVLEKAALTSLAYPRRPGVPERHPLC | soluble |
| MLELAILGLLIESPMHGYELRKRLTGLLGAFRAFSYGSLYPALRRMQADGLIAENAAPAGTPVRRARRVYQLTDKGRRRFGELVADTGPHNYTDDGFGVHLAFFNRTPAEARMRILEGRRRQVEERREGLREAVARASSSFDRYTRQLHQLGLESSEREVKWLNELIAAERAAPNPAEQT | not soluble |
| MEIYHQYIKLRKQFGRFPKFGDEGSEMLADIRPNEDHGKEYIPRNPVTTVTQCVPEMSEHEANTNAVILVNKAMSHVEGGWPKDVDYTEAEHTIRYRKKVEKDEDYIRTVVQLGSSVEDLIKQNNAVDIYQEYFTNVTMDHTSEAPHVKTVTVFKDPNNIKRSASYVNWHPDGSVPKVVVAYSILQFQQQPAGMPLSSYIWDVNNPNTPEYEMVPTSQICCAKFNLKDNNLVGAGQYNGQLAYFDVRKGNGPVEATPIDISHRDPIYDFAWLQSKTGTECMTVSTDGNVLWWDLRKMNECVENMPLKEKNSETTVGGVCLEYDTNAGPTNFMVGTEQGQIFSCNRKAKNPVDRVKYVLSGHHGPIYGLRRNPFNSKYFLSIGDWTARVWVEDTAVKTPILTTKYHPTYLTGGTWSPSRPGVFFTIKMDGAMDVWDLYYKHNEPTLTVQVSDLALTAFAVQESGGTVAVGTSDGCTSVLQLSTGLSEASPAEKANINAMFERETTREKNLEKAIKEAKVKARKEQGRRDEVKDNVTEEQLKALEDEFFKTTDPAVGGGYGAGEGAAAE | not soluble |
